Assay results as given in paper PMC3306407, “A Single-Stranded DNA Aptamer That Selectively Binds to Staphylococcus aureus Enterotoxin B”.

Tests used:
[1] = target: staphylococcal enterotoxin B (SEB) (Staphylococcus aureus, UniProt P01552 28-266)
[2] = target: staphylococcal enterotoxin C3 (SEC3) (Staphylococcus aureus, UniProt P0A0L5 28-266)
[3] = target: staphylococcal enterotoxin C1 (SEC1) (Staphylococcus aureus, UniProt P01553 28-266)
[4] = target: staphylococcal enterotoxin C2 (SEC2) (Staphylococcus aureus, UniProt P34071 28-266)

B1: APTSEB1 (ssDNA)
DNA: GGTATTGAGGGTCGCATCCACTGGTCGTTGTTGTCTGTTGTCTGTTATGTTGTTTCGTGATGGCTCTAACTCTCCTCT
- binding result [1]: binds
- binding result [2]: no binding
- binding result [3]: no binding
- binding result [4]: no binding
